Molecular target: SARS-CoV-2 S protein trimer (Delta B.1.617.2 India variant) [SPN-C52He] (SARS-CoV-2, UniProt P0DTC2 16-1213)
Experiment: SPR

B1: 3-31 (VHH)
VHH: EVQLVESGGGLVQPGGSLRLSCAASGSTFSINAMGWFRQAPGKEREFVAGITSSGGYTNYADSVKGRFTISADNSKNTAYLQMNSLKPEDTAVYYCAADGVPEYSDYASGPVWGQGTLVTVSS
Which Kd does the source give for B1 here?
Its Kd is less than 0.016 nM.

B2: 6A-3 (VHH)
VHH: EVQLVESGGGLVQPGGSLRLSCAASGFTFSPSWMGWFRQAPGKEREFVATINEYGGRNYADSVKGRFTISADNSKNTAYLQMNSLKPEDTAVYYCARVDRDFDYWGQGTLVTVSS
With B2 as the binder, how does the Kd read?
Its Kd is 0.449 nM.

— patent publication US20230265217A1 (published 2023)
